Literature values, collected in publication PMC5472405.

Biological target: CXCR4 (Homo sapiens) (UniProt P61073)
Sequence (P61073 whole entry): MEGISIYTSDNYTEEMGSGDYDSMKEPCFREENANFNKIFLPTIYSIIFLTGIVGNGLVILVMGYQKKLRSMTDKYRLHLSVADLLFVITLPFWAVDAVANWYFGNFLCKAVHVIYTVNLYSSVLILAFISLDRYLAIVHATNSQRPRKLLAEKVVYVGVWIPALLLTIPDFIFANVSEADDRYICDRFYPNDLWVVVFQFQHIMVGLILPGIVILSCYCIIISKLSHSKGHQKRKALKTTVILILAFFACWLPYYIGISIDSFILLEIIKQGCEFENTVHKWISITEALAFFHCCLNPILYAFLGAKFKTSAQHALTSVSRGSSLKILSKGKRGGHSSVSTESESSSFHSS

Chain of CXCL14 (O95715 35-111): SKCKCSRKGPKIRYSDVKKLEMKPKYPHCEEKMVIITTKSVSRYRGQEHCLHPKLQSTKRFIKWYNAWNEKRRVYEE

Kd: 14.7 nM
Substance: CXCL14 (from UniProt O95715)
